From publication PMC2629585, “Local Inflammation Induces Complement Crosstalk Which Amplifies the Antimicrobial Response” (PLoS Pathogens, 2009)

Target: T1, C1q (UniProt P02745 23-245; P02746 28-253; P02747 29-245)
T1 construct: complement C1q subcomponent subunit A; complement C1q subcomponent subunit B; complement C1q subcomponent subunit C; source: bought: Quidel (San Diego, CA); copies: + +
Assay: ELISA; competition; 0.8 ug CRP immobilised; 0.8 ug C1q with increasing L-ficolin or 0.8 ug L-ficolin with increasing C1q; TBS, 0.05% Tween-20, 1% HSA, pH 7.4, 2.5 mM calcium
Settings: both partners purified

T1 sequence (P02745 23-245, chain 1 of 3): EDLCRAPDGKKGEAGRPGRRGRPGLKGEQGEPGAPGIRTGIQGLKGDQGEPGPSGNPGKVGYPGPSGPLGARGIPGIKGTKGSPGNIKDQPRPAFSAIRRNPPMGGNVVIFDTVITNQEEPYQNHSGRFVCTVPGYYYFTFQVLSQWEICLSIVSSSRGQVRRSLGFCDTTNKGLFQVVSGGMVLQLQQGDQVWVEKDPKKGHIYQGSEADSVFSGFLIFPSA
T1 sequence (P02746 28-253, chain 2 of 3): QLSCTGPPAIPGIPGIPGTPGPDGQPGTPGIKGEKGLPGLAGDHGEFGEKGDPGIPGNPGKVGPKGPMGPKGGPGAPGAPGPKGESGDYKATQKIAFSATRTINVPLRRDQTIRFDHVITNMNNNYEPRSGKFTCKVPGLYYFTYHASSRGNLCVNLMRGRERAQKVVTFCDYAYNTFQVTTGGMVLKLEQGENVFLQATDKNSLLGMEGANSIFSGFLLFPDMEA
T1 sequence (P02747 29-245, chain 3 of 3): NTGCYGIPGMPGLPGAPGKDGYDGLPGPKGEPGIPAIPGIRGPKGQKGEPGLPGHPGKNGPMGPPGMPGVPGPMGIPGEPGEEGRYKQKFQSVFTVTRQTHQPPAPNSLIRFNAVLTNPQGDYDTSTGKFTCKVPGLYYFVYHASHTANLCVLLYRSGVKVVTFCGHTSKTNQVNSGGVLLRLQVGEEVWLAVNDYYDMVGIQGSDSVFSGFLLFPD

B1: C-reactive protein (CRP), human, purified (Sigma) (natural protein, UniProt P02741 19-224, looked up)
chain: QTDMSRKAFVFPKESDTSYVSLKAPLTKPLKAFTVCLHFYTELSSTRGYSIFSYATKRQDNEILIFWSKDIGYSFTVGGSEILFEVPEVTVAPVHICTSWESASGIVEFWVDGKPRVRKSLKKGYTVGAEASIILGQEQDSFGGNFEGSQSLVGDIGNVNMWDFVLSPDEINTIYLGGPFSPNVLNWRALKYEVQGEVFTKPQLWP
notes: human C-reactive protein, bought from Sigma; purity checked by SDS PAGE and mass spectrometry; source: bought: Sigma
binding result: binds
